How the values were obtained:
[1] = test system: primary mouse osteoclast precursor cells (primary mouse bone marrow monocytes); test: osteoclast resorption assay on bio-mineralized matrix, MCSF dependency (FIG. 1); type: cell-based; conditions: RANKL (40 ng/ml) present, as a function of MCSF concentration
Source text: The sequence is divided into two phases. In phase I, the matrix synthesis with osteoblasts occurs; the latter, after production of the matrix (approximately 25 days), are removed from the matrix. The subsequent phase II encompasses the use of the matrix for the osteoclast resorption assay. In this connection, the method in this example was employed in order to examine the resorption activity of primary mouse osteoclast precursor cells (primary mouse bone marrow monocytes) as a function of the concentration of MCSF (macrophage colony-stimulating factor).
(§1) For the synthesis of a bone-like physiological matrix, the human osteoblast precursor cell line SAOS-2 (DSMZ ACC 243, DSMZ, Braunschweig) is used in this embodiment. The cells are seeded on cell culturing plates. […]
(§2) The resorption assay is based on the combination of two methods with each other. […] For determining the resorption surface area the dried plates were subsequently scanned by a transmitted light scanner and evaluated e.g. by means of Image Quant. In this connection, the scanned surface area was determined and white surfaces differentiated from black surfaces. The volume of the white surface area can then be calculated by means of the calibration line (see FIG. 2) into the actual resorted surface area.

[2] = test system: osteoclasts differentiated by RANKL from mouse osteoclast precursor cell line RAW 264.7; test: osteoclast resorption assay on bio-mineralized matrix, inhibition study (FIG. 4); type: cell-based; conditions: RAW 264.7 differentiated by RANKL addition (40 ng/ml)
Description: Moreover, particularly in medical research the examination of inhibiting materials or activators of osteoclast activity is especially of interest. As an example, in FIG. 4 it is shown that the osteoclast activity depends on the inhibitor interferon-y. The osteoclasts were differentiated by RANKL addition (40 ng/ml)) from a mouse osteoclast precursor cell line (RAW 264.7). […] Accordingly, the invention can also be utilized for inhibition studies in relation to osteoclast resorption activity.
as §1, with “plates. The differentiation of the cells is realized by addition of ascorbate (300 μmol/l) and β-glycerophosphate (10 mmol/l) to the medium (alpha MEM, Biochrom, 10% FCS).” for “plates.”
as §2

Molecule	resorption activity of the differentiated osteoclasts [1]	osteoclast activity (resorption activity) [2]
MCSF: macrophage colony-stimulating factor, cytokine added for osteoclast differentiation (protein, UniProt P09603 33-554, looked up) Macrophage colony-stimulating …: EEVSEYCSHMIGSGHLQSLQRLIDSQMETSCQITFEFVDQEQLKDPVCYLKKAFLLVQDIMEDTMRFRDNTPNAIAIVQLQELSLRLKSCFTKDYEEHDKACVRTFYETPLQLLEKVKNVFNETKNLLDKDWNIFSKNCNNSFAECSSQDVVTKPDCNCLYPKAIPSSDPASVSPHQPLAPSMAPVAGLTWEDSEGTEGSSLLPGEQPLHTVDPGSAKQRPPRSTCQSFEPPETPVVKDSTIGGSPQPRPSVGAFNPGMEDILDSAMGTNWVPEEASGEASEIPVPQGTELSPSRPGGGSMQTEPARPSNFLSASSPLPASAKGQQPADVTGTALPRVGPVRPTGQDWNHTPQKTDHPSALLRDPPEPGSPRISSLRPQGLSNPSTLSAQPQLSRSHSSGSVLPLGELEGRRSTRDRRSPAEPEGGPASEGAARPLPRFNSVPLTDTGHERQSEGSFSPQLQESVFHLLVPSVILVLLAVGGLLFYRWRRRSHQEPQRADSPLEQPEGSPLTQDDRQVELPV	depends on the quantity of added MCSF	–
interferon-y: inhibitor of osteoclast activity (protein, UniProt P01579 24-161, looked up) Interferon gamma: QDPYVKEAENLKKYFNAGHSDVADNGTLFLGILKNWKEESDRKIMQSQIVSFYFKLFKNFKDDQSIQKSVETIKEDMNVKFFNSNKKKRDDFEKLTNYSVTDLNVQRKAIHELIQVMAELSPAAKTGKRKRSQMLFRG	–	concentration-dependent inhibition

— patent US20120003684A1, “Method and Means for Detecting the Activity of Osteoclasts” (TECHNISCHE UNIVERSITAET DRESDEN, priority 2009, published 2012)
